Experimental data reported in patent publication US20120316071A1 (published 2012).
Residue numbers refer to the chain shown, from its start. Names may count otherwise. One block for each binder: values may come before it.

Legend:
[1] = target: T1, rHuman ErbB2/Fc Chimera, CF (R&D Systems Cat#1129-ER) (human, UniProt P04626 23-652); experiment: ECL multispot (MSD), antigen spotted, Fab in solution; blank spot 356
T1 construct: Bought reagent

[2] = target: T2, rHuman EGF R/Fc Chimera, CF (R&D Systems Cat#344-ER) (human, UniProt P00533 25-645); experiment: as above
T2 construct: Bought reagent

[3] = target: T3, rHuman HGF R/c-MET/Fc Chimera, CF (R&D Systems Cat#358-MT/CF) (human, UniProt P08581 25-932); experiment: as above
T3 construct: Bought reagent; also called HGF R/Fc

[4] = target: T4, rHuman Notch-1/Fc Chimera, CF (R&D Systems Cat#3647-TK) (human, UniProt P46531 19-526); experiment: as above
T4 construct: Bought reagent

[5] = target: T5, rHuman CD44/Fc Chimera, CF (R&D Systems Cat#3660-CD) (human, UniProt P16070 21-220); experiment: as above
T5 construct: Bought reagent

[6] = target: T6, rHuman IGF-1 sR (insulin-like growth factor-1 soluble receptor), CF (R&D Systems Cat#391-GR) (human, UniProt P08069 31-932); experiment: as above
T6 construct: Bought soluble receptor

[7] = target: T7, rHuman P-Cadherin/Fc Chimera, CF (R&D Systems Cat#861-PC) (human, UniProt P22223 108-654); experiment: as above
T7 construct: Bought reagent

[8] = target: T8, rHuman Erythropoietin R/Fc Chimera, CF (R&D Systems Cat#963-ER) (human, UniProt P19235 25-250); experiment: as above
T8 construct: Bought reagent; also called EPO R; Epo R/Fc
T8 sequence (looked up): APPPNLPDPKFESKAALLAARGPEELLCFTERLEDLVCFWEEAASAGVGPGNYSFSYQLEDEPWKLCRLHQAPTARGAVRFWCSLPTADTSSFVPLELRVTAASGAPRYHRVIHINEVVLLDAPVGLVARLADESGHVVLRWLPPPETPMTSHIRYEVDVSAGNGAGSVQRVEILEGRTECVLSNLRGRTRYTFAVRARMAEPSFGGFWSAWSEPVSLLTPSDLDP

[9] = target: T9, Recombinant Human DLL4 (R&D Systems Cat#1506-D4/CF) (human, UniProt Q9NR61 27-524); experiment: as above
T9 construct: Bought recombinant protein; also called delta-like protein 4; rHuman DLL4

[10] = target: T1, rHuman ErbB2/Fc Chimera, CF (R&D …); experiment: ECL multispot (MSD), antigen spotted, Fab in solution; blank spot 272
[11] = target: T2, rHuman EGF R/Fc Chimera, CF (R&D …); experiment: as above
[12] = target: T3, rHuman HGF R/c-MET/Fc Chimera, CF (R&D …); experiment: as above
[13] = target: T4, rHuman Notch-1/Fc Chimera, CF (R&D …); experiment: as above
[14] = target: T5, rHuman CD44/Fc Chimera, CF (R&D Systems …); experiment: as above
[15] = target: T6, rHuman IGF-1 sR (insulin-like growth …); experiment: as above
[16] = target: T7, rHuman P-Cadherin/Fc Chimera, CF (R&D …); experiment: as above
[17] = target: T8, rHuman Erythropoietin R/Fc Chimera, CF …; experiment: as above
[18] = target: T9, Recombinant Human DLL4 (R&D Systems …); experiment: as above
[19] = target: T1, rHuman ErbB2/Fc Chimera, CF (R&D …); experiment: ECL multispot (MSD), antigen spotted, Fab in solution; blank spot 289
[20] = target: T2, rHuman EGF R/Fc Chimera, CF (R&D …); experiment: as above
[21] = target: T3, rHuman HGF R/c-MET/Fc Chimera, CF (R&D …); experiment: as above
[22] = target: T4, rHuman Notch-1/Fc Chimera, CF (R&D …); experiment: as above
[23] = target: T5, rHuman CD44/Fc Chimera, CF (R&D Systems …); experiment: as above
[24] = target: T6, rHuman IGF-1 sR (insulin-like growth …); experiment: as above
[25] = target: T7, rHuman P-Cadherin/Fc Chimera, CF (R&D …); experiment: as above
[26] = target: T8, rHuman Erythropoietin R/Fc Chimera, CF …; experiment: as above
[27] = target: T9, Recombinant Human DLL4 (R&D Systems …); experiment: as above
[28] = target: T1, rHuman ErbB2/Fc Chimera, CF (R&D …); experiment: ECL multispot (MSD), antigen spotted, Fab in solution; blank spot 198
[29] = target: T2, rHuman EGF R/Fc Chimera, CF (R&D …); experiment: as above
[30] = target: T3, rHuman HGF R/c-MET/Fc Chimera, CF (R&D …); experiment: as above
[31] = target: T4, rHuman Notch-1/Fc Chimera, CF (R&D …); experiment: as above
[32] = target: T5, rHuman CD44/Fc Chimera, CF (R&D Systems …); experiment: as above
[33] = target: T6, rHuman IGF-1 sR (insulin-like growth …); experiment: as above
[34] = target: T7, rHuman P-Cadherin/Fc Chimera, CF (R&D …); experiment: as above
[35] = target: T8, rHuman Erythropoietin R/Fc Chimera, CF …; experiment: as above
[36] = target: T9, Recombinant Human DLL4 (R&D Systems …); experiment: as above

T3 sequence (P08581 25-932, change not shown): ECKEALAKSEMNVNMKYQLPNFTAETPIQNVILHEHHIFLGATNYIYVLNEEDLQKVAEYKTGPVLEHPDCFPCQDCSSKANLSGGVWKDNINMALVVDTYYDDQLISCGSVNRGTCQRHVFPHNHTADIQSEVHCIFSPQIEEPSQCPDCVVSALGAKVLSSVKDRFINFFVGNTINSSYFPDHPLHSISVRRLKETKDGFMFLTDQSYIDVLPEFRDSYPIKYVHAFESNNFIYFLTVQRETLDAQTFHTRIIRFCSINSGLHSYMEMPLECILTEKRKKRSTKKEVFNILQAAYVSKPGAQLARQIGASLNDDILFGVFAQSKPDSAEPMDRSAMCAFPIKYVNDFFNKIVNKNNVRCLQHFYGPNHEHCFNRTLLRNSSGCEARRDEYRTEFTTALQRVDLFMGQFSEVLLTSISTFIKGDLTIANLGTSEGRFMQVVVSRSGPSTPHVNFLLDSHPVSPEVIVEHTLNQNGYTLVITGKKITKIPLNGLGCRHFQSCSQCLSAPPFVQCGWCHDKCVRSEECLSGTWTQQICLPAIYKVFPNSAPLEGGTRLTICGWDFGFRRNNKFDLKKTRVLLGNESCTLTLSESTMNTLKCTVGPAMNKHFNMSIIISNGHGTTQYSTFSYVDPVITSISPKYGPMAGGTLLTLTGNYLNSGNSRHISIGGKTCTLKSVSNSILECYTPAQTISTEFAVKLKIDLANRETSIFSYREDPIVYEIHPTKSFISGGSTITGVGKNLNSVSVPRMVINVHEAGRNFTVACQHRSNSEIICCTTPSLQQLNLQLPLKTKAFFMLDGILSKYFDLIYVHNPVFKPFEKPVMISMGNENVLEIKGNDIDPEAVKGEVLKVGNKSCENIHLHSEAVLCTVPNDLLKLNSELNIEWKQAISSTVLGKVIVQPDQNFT

ECL signal [1]: 251
ECL signal [2]: 322
ECL signal [3]: 414
ECL signal [4]: 380
ECL signal [5]: 390
ECL signal [6]: 400
ECL signal [7]: 454
ECL signal [8]: 561
ECL signal [9]: 184000
B1: Fab VH1-46_IGHD6-6*01_IGHJ1*01 S102A/S103P/S104F/H111F (APFF) & L6_IGKJ1*01 S30A (Fab, V domains shown)
VH: QVQLVQSGAEVKKPGASVKVSCKASGYTFTSYYMHWVRQAPGQGLEWMGIINPSGGSTSYAQKFQGRVTMTRDTSTSTVYMELSSLRSEDTAVYYCAREEYAPFSAEYFQFWGQGTLVTVSS
VL: EIVLTQSPATLSLSPGERATLSCRASQSVASYLAWYQQKPGQAPRLLIYDASNRATGIPARFSGSGSGTDFTLTISSLEPEDFAVYYCQQRSNWPPWTFGQGTKVEIKR
notes: Tested as Fab made in E. coli: VH joined to CH1 from Plasmid A (His6 and Flag tags), VL joined to kappa CL from Plasmid C; also called APFF / S30A

ECL signal [10]: 404
ECL signal [11]: 387
ECL signal [12]: 355
ECL signal [13]: 382
ECL signal [14]: 427
ECL signal [15]: 393
ECL signal [16]: 369
ECL signal [17]: 485
ECL signal [18]: 180000
B2: Fab VH1-46_IGHD6-6*01_IGHJ1*01 S102A/S103P/S104F/H111F (APFF) & L6_IGKJ1*01 S30G (Fab, V domains shown)
VH: B1 VH
VL: B1 VL with A30G
notes: Tested as Fab made in E. coli: VH joined to CH1 from Plasmid A (His6 and Flag tags), VL joined to kappa CL from Plasmid C; also called APFF / S30G

ECL signal [19]: 289
ECL signal [20]: 398
ECL signal [21]: 399
ECL signal [22]: 372
ECL signal [23]: 500
ECL signal [24]: 471
ECL signal [25]: 342
ECL signal [26]: 542
ECL signal [27]: 191000
B3: Fab VH1-46_IGHD6-6*01_IGHJ1*01 S102A/S103P/S104F/H111F (APFF) & L6_IGKJ1*01 S30W (Fab, V domains shown)
VH: B1 VH
VL: B1 VL with A30W
notes: Tested as Fab made in E. coli: VH joined to CH1 from Plasmid A (His6 and Flag tags), VL joined to kappa CL from Plasmid C; also called APFF / S30W

ECL signal [28]: 262
ECL signal [29]: 353
ECL signal [30]: 339
ECL signal [31]: 243
ECL signal [32]: 400
ECL signal [33]: 342
ECL signal [34]: 298
ECL signal [35]: 423
ECL signal [36]: 203000
B4: Fab VH1-46_IGHD6-6*01_IGHJ1*01 S102A/S103P/S104F/H111F (APFF) & L6_IGKJ1*01 S30Q (Fab, V domains shown)
VH: B1 VH
VL: B1 VL with A30Q
notes: Tested as Fab made in E. coli: VH joined to CH1 from Plasmid A (His6 and Flag tags), VL joined to kappa CL from Plasmid C; also called APFF / S30Q
